Tests used:
[1] = target: T1, Npm2 (nucleoplasmin) (Xenopus laevis, UniProt P05221); assay: affinity purification with mass spectrometry; purified His-tagged nanobody incubated with Xenopus embryo lysate (1% Triton X100 lysis buffer), captured on His60 Ni Superflow resin overnight at 4°C, SDS-PAGE, SimplyBlue staining, 170 kDa band cut out for LC-MS/MS; settings: one partner purified
T1 construct: predicted molecular weight 22 kDa, found as a 170 kDa band in SDS-PAGE; it was not measured here; also called 170 kDa band; source: endogenous, Xenopus laevis embryo lysate; copies: 10
T1 sequence (P05221 whole entry): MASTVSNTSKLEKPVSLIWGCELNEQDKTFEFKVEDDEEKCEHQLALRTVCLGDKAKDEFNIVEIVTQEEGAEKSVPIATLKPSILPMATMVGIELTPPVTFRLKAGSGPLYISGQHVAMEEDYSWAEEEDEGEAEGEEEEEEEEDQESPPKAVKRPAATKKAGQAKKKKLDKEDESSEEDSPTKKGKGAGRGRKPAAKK

[2] = target: T2, BSA (Bos taurus, UniProt P02769); assay: ELISA; 96-well plate coated with 1 μg/ml Ndel1-MBP or BSA; purified nanobodies at 2 μg/ml in 2% skim milk in PBS/0.05% Tween-20, 4 h at room temperature; detected by anti-His-tag antibody; settings: both partners purified
T2 construct: BSA (serum albumin), negative control coating in ELISA
T2 sequence (P02769 25-607): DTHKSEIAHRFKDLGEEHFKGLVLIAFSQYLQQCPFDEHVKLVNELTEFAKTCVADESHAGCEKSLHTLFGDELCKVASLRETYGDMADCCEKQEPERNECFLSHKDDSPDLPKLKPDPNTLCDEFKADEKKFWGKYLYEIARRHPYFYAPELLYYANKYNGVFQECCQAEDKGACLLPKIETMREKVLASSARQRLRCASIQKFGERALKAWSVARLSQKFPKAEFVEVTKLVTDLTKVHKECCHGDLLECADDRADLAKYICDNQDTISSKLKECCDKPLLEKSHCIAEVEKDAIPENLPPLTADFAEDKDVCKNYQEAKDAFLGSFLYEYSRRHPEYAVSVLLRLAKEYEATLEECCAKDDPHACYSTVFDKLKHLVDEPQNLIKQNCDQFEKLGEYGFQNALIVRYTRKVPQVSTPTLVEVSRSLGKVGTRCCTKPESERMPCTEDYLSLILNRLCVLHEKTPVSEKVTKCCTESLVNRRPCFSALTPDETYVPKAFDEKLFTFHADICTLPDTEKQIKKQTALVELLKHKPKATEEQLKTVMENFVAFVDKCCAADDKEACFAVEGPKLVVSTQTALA

[3] = target: T1, Npm2 (nucleoplasmin); assay: far-Western, overlay or dot blot; immunoblot: Xenopus embryo lysates of different stages on 10% SDS-PAGE, PVDF membrane probed overnight at 4°C with purified His-tagged nanobody (0.2-3 μg/ml), detected by anti-His6 antibody; settings: one partner purified

Binder | binding result [2] | also measured
NbG12 (VHH, nanobody from the immune llama library; Nucleus-staining nanobody; source: bacterial periplasm (pecan126 phagemid clone), purified (His60-Ni-Superflow resin)) VHH: VQLQASGGGLVQAGSSRRLYCAFSGDTFNGRPMGWFRQAPGKEREFVATISASGGRTYYAGSVLGRFTISRDNTRNTVSLQMNNLTPEDTAVYYCAAKRPTALSDNYDYKTENEYNYWGQGTQVTVS | – | binding result [1]: binds
NbE2 (VHH, nanobody from the semi-synthetic non-immune llama library Nomad#1; His6-tagged alkaline phosphatase fusion from pecan16; source: E. coli BL21Star periplasm (pecan16), purified (IMAC)) VHH: QVKLQQSGGGSVQVGGSLRLSCTASGSAFIINTMSWYRRAPGKQRELVATITRRGTTNYADSVKGRFTISRDNAENTVDLHMNSLKPEDTAVYYCKGYRADWMTDYWGQGTQVTVSS | no binding (tested: 2 μg/ml) | –
NbH3 (VHH, nanobody from the semi-synthetic non-immune llama library Nomad#1; His6-tagged alkaline phosphatase fusion from pecan16; source: E. coli BL21Star periplasm (pecan16), purified (IMAC)) VHH: EVKLQESGGGLAQSGGSLRLSCAPQLGAHTIVAMGWYRQPPDSQREFVAMLFANGITRYNEAVKGRFTISRDDAKNTMYLQMNNLKPEDTAVYYCKIYDHSIMTDYWGQGTQVTVSS | no binding (tested: 2 μg/ml) | –
NbN39 (VHH, nanobody from the immune llama library; Nucleus-staining nanobody; used as negative control in the Ndel1 ELISA; source: bacterial periplasm (pecan126 phagemid clone), purified (IMAC)) VHH: VQLQASGGGLVQAGGSLRLSCTFSGGTFNGRNMGWFRQAPGKEREFAATISASGGRTYYAESVLGRFTISRDNARNTVYLQMNNLTPEDTAVYFCAAKRPTRLSENYDYKTENDYDYWGQGTQVTVS | – | binding result [3]: binds
NbE9 (VHH, nanobody from the semi-synthetic non-immune llama library Nomad#1; His6-tagged alkaline phosphatase fusion from pecan16; also called AP-NbE9; 6His-AP-NbE9; source: E. coli BL21Star periplasm (pecan16), purified (IMAC); not shown: alkaline phosphatase, C-terminal, kept) VHH: QVKLQESGGGSVQHGGSLRLSCVASGLSFSNHWMYWVRQAQGKGLEWVSSINPSGSFTSYTDSAKGRFTISKANDGHTVYLQMNNLKPEDTGVYYCGLGSWSELEYSYSYWGRGTQVTVSS | no binding (tested: 2 μg/ml) | –
NbE7 (VHH, nanobody from the semi-synthetic non-immune llama library Nomad#1; His6-tagged alkaline phosphatase fusion from pecan16; also called AP-NbE7; source: E. coli BL21Star periplasm (pecan16), purified (IMAC); not shown: alkaline phosphatase, C-terminal, kept) VHH: KVQLQASGGGLVQPGGSLQLSCVASGLSFSNYWMYWVRQAQGKGLEWVSSINPSGSFTSYTDSAKGRFTISKANDGHTVYLQMNNLKPEDTGVYYCGLGSWSELEYSYSYWGRGTQVTVSS | no binding (tested: 2 μg/ml) | –
NbG6 (VHH, nanobody from the semi-synthetic non-immune llama library Nomad#1; His6-tagged alkaline phosphatase fusion from pecan16; source: E. coli BL21Star periplasm (pecan16), purified (IMAC)) VHH: DVQLQASGGGLVQPGASLRLSCVSTRNTFSIDPMSWYRRAPGKGLEWVSGISNRGGSTSYADSVKGRFTISRDNIKSTLYLQMNSLKPEDTAVYYCNADASRWGSWGQGTQVTVSS | no binding (tested: 2 μg/ml) | –

From PMC6497274, “Isolation of nanobodies against Xenopus embryonic antigens using immune and non-immune phage display libraries” (PLoS ONE, 2019)
